According to US20090203610A1, “METHODS OF TREATING OBESITY OR DIABETES USING NT-4/5” (RINAT NEUROSCIENCE CORPORATION, priority 2004, published 2009):
Numbering of substitutions follows the chain as printed. Numbers in names are those of the source.

What was measured:
human TrkB = target: T1, human TrkB (Homo sapiens, UniProt Q16620); assay: Receptor tyrosine phosphorylation (KIRA) in TrkB expressing cell line; format: cell-based; settings: for functional binding with TrkB in the KIRA assay: single cysteine mutants
T1 construct: expressed in transfected cells
Text: Method of making pegylated NT-4/5 (S50C): The native form of NT-4/5 used in this study was produced according to the method described in U.S. Pat. No. 6,184,360. A site-directed pegylated NT-4/5 was also produced. The structure of NT-4/5 in complex with domain 5 of TrkB was examined to find amino acid side chains that would be surface available and unlikely to interfere with natural disulfide bonds and also unlikely to interfere in either the interactions between the monomer subunits of NT-4/5 or the TrkB domain 5 to create a PEG attaching site. […] […] Mutant proteins were expressed in E. coli, solubilized, extracted, purified and refolded as the native NT-4/5. To pegylate the refolded NT4-S50C, NT4-Q105C, and NT-4-E67C, first a mild reduction with 0.1 mM DTT (dithiothreitol) was performed. Excess DTT was removed by dialysis against 50 mM sodium acetate at pH 6, then a 5 molar excess of mPEG-maleimide (M. W. of 10,000 Da, SunBio, Inc., South Korea) was incubated with the protein at 37° C. for several days with gentle agitation. Pegylated protein, non-pegylated protein and unreacted PEG were separated via ion exchange or size exclusion chromatography.
(§1) Assays of TrkB specific activation by pegylated NT-4/5: Stable cell lines expressing human TrkA, TrkB or TrkC were used to determine the functional activity, i.e. receptor phosphorylation, of NT-4/5 and pegylated NT-4/5 as previously described (Sadick et al. Experimental Cell Research 234: 354-361, 1997).
as §1, with “and different forms of” for “and”

[1] = test system: NONcNZO-10 polygenic obese mice; assay: Non-fasting blood triglyceride level in NONcNZO-10 mice (Example 4, Table 18); format: in vivo; parameters: non-fasting blood triglyceride level: unit not given here; settings: NONcNZO-10 mice, mean
Text: (§2) Test animals: 40 male NONcNZO-10 polygenic obese mice obtained from Jackson Laboratory at 10 weeks of age weighing in the range of 26-32 g were used in this study.
(§3) Administration of NT-4/5: NT-4/5 was produced in E. coli as descried in U.S. Pat. No. 6,184,360. The mice were divided into 6 groups of equivalent body weight and baseline blood glucose distribution (6-7 mice per group). […] A “paired-fed” control group received daily injection of vehicle, but were only fed with the same amount of food the 3 mg/kg group consumed the previous day. On the day when the treatment started (day 1), a baseline blood samples were collected for measuring glucose and triglyceride. Triglyceride level was measured on day 10. At the end of the study (day 12), a terminal blood sample was collected to determine glucose, triglyceride, electrolytes (Na, K, Cl), testoterone, corticosterone, thyroid hormone (total T4) and thyroid stimulating hormone (TSH) levels. Electrolytes, free testosterone, T4 and TSH levels of serum samples were measured by AniLytics (Gaithesburg, M.D) according to the standard protocols employed by the vendor. Other analytes were measured as described above. Body weight, food intake were monitored 5 days per week through out the entire study. Daily water intake was measured from day 5 through day 7.

[2] = test system: NONcNZO-10 polygenic obese mice; assay: Food intake in NONcNZO-10 mice (Example 4, Table 20); format: in vivo; parameters: unit not given here; settings: NONcNZO-10 mice, mean
Text: as §2, §3

[3] = test system: NONcNZO-10 polygenic obese mice; assay: Body weight in NONcNZO-10 mice (Example 4, Table 19); format: in vivo; parameters: body weight: unit not given here; settings: NONcNZO-10 mice, mean
Text: as §2, §3

T1 sequence (Q16620 32-822): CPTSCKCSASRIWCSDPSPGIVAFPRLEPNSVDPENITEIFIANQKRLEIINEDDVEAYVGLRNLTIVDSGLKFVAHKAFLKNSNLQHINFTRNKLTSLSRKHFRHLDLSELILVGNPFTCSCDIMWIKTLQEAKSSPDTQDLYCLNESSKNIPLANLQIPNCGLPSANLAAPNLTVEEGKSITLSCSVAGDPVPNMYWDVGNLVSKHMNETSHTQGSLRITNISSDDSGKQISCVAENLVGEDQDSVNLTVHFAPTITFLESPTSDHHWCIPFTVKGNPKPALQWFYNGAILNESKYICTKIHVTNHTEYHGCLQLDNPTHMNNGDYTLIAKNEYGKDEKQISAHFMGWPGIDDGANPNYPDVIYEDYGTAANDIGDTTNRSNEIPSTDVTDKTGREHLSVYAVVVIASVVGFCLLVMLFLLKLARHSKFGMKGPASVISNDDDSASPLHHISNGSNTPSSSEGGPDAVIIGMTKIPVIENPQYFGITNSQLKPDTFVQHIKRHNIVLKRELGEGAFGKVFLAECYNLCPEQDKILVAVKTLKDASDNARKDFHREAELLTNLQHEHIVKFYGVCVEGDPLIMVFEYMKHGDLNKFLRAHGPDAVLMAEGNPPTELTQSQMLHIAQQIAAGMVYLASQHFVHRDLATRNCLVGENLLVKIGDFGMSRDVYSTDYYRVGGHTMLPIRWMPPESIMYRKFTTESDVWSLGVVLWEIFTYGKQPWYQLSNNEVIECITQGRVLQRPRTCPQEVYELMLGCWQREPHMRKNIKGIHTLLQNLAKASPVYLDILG

B1: S50C: single cysteine mutant of mature human NT-4/5, serine 50 to cysteine (protein)
chain: GVSETAPASRRGELAVCDAVSGWVTDRRTAVDLRGREVEVLGEVPAAGGCPLRQYFFETRCKADNAEEGGPGAGGGGCRGVDRRHWVSECKAKQSYVRALTADAQGRVGWRWIRIDTACVCTLLSRTGRA
For B1, the “functional binding with TrkB in the KIRA assay” value (from here on “functional binding with TrkB”) (human TrkB) was “found possible”.

B2: Q105C: single cysteine mutant of mature human NT-4/5 at position 105 (protein)
chain: B1 chain with C50S, Q105C
In the case of B2, the “functional binding with TrkB” value (human TrkB) is reported as “found possible”.

B3: E67C: single cysteine mutant of mature human NT-4/5, glutamic acid 67 to cysteine (protein)
chain: B1 chain with C50S, E67C
For B3, the “functional binding with TrkB” value (human TrkB) was “found possible”.

B4: NT4 (protein)
chain: B1 chain with C50S
With B4 the “non-fasting blood triglyceride level” value ([1]; 0.1 mg/kg s.c. daily, Day 1 (baseline)) was 291.7, the “non-fasting blood triglyceride level” value ([1]; 0.1 mg/kg s.c. daily, Day 10) was 172.7 and the “non-fasting blood triglyceride level” value ([1]; 0.3 mg/kg s.c. daily, Day 1 (baseline)) was 279.3. For the same molecule, the “non-fasting blood triglyceride level” value ([1]; 0.3 mg/kg s.c. daily, Day 10) was 208.0, the “non-fasting blood triglyceride level” value ([1]; 1 mg/kg s.c. daily, Day 1 (baseline)) was 307.7 and the “non-fasting blood triglyceride level” value ([1]; 1 mg/kg s.c. daily, Day 10) was 226.3. For the same molecule, the “non-fasting blood triglyceride level” value ([1]; 3 mg/kg s.c. daily, Day 1 (baseline)) was 306.1, the “non-fasting blood triglyceride level” value ([1]; 3 mg/kg s.c. daily, Day 10) was 226.3 and the food intake ([2]; 0.1 mg/kg s.c., Day 1) was 5.17. For the same molecule, the food intake ([2]; 0.1 mg/kg s.c., Day 2) was 5.50, the food intake ([2]; 0.1 mg/kg s.c., Day 3) was 5.83 and the food intake ([2]; 0.1 mg/kg s.c., Day 4) was 6.00. The food intake ([2]; 0.1 mg/kg s.c., Day 5) was 5.50, the food intake ([2]; 0.1 mg/kg s.c., Day 8) was 4.50 and the food intake ([2]; 0.1 mg/kg s.c., Day 9) was 4.83. The food intake ([2]; 0.1 mg/kg s.c., Day 10) was 5.00, the food intake ([2]; 0.3 mg/kg s.c., Day 1) was 5.32 and the food intake ([2]; 0.3 mg/kg s.c., Day 2) was 5.67. It also gave a food intake ([2]; 0.3 mg/kg s.c., Day 3) of 5.33, a food intake ([2]; 0.3 mg/kg s.c., Day 4) of 5.67 and a food intake ([2]; 0.3 mg/kg s.c., Day 5) of 4.83. For the same molecule, the food intake ([2]; 0.3 mg/kg s.c., Day 8) was 4.33, the food intake ([2]; 0.3 mg/kg s.c., Day 9) was 4.50 and the food intake ([2]; 0.3 mg/kg s.c., Day 10) was 4.67. It also gave a food intake ([2]; 1 mg/kg s.c., Day 1) of 5.07, a food intake ([2]; 1 mg/kg s.c., Day 2) of 5.43 and a food intake ([2]; 1 mg/kg s.c., Day 3) of 4.86. For the same molecule, the food intake ([2]; 1 mg/kg s.c., Day 4) was 4.71, the food intake ([2]; 1 mg/kg s.c., Day 5) was 4.43 and the food intake ([2]; 1 mg/kg s.c., Day 8) was 3.93. The food intake ([2]; 1 mg/kg s.c., Day 9) was 4.00, the food intake ([2]; 1 mg/kg s.c., Day 10) was 4.14 and the food intake ([2]; 3 mg/kg s.c., Day 1) was 5.13. For the same molecule, the food intake ([2]; 3 mg/kg s.c., Day 2) was 4.86, the food intake ([2]; 3 mg/kg s.c., Day 3) was 4.29 and the food intake ([2]; 3 mg/kg s.c., Day 4) was 4.29. The food intake ([2]; 3 mg/kg s.c., Day 5) was 4.00, the food intake ([2]; 3 mg/kg s.c., Day 8) was 3.86 and the food intake ([2]; 3 mg/kg s.c., Day 9) was 3.57. The food intake ([2]; 3 mg/kg s.c., Day 10) was 3.86, the body weight ([3]; 0.1 mg/kg s.c., Day 1) was 100.0 and the body weight ([3]; 0.1 mg/kg s.c., Day 2) was 97.7. It also gave a body weight ([3]; 0.1 mg/kg s.c., Day 3) of 100.0, a body weight ([3]; 0.1 mg/kg s.c., Day 4) of 102.2 and a body weight ([3]; 0.1 mg/kg s.c., Day 5) of 104.5. It also gave a body weight ([3]; 0.1 mg/kg s.c., Day 8) of 102.2, a body weight ([3]; 0.1 mg/kg s.c., Day 9) of 102.8 and a body weight ([3]; 0.1 mg/kg s.c., Day 10) of 103.3. It also gave a body weight ([3]; 0.1 mg/kg s.c., Day 11) of 105.1, a body weight ([3]; 0.3 mg/kg s.c., Day 1) of 100.0 and a body weight ([3]; 0.3 mg/kg s.c., Day 2) of 98.3. It also gave a body weight ([3]; 0.3 mg/kg s.c., Day 3) of 98.9, a body weight ([3]; 0.3 mg/kg s.c., Day 4) of 100.6 and a body weight ([3]; 0.3 mg/kg s.c., Day 5) of 101.8. The body weight ([3]; 0.3 mg/kg s.c., Day 8) was 101.2, the body weight ([3]; 0.3 mg/kg s.c., Day 9) was 102.4 and the body weight ([3]; 0.3 mg/kg s.c., Day 10) was 102.9. The body weight ([3]; 0.3 mg/kg s.c., Day 11) was 104.1, the body weight ([3]; 1 mg/kg s.c., Day 1) was 100.0 and the body weight ([3]; 1 mg/kg s.c., Day 2) was 97.1. For the same molecule, the body weight ([3]; 1 mg/kg s.c., Day 3) was 94.8, the body weight ([3]; 1 mg/kg s.c., Day 4) was 98.2 and the body weight ([3]; 1 mg/kg s.c., Day 5) was 99.2. It also gave a body weight ([3]; 1 mg/kg s.c., Day 8) of 97.7, a body weight ([3]; 1 mg/kg s.c., Day 9) of 97.6 and a body weight ([3]; 1 mg/kg s.c., Day 10) of 97.6. For the same molecule, the body weight ([3]; 1 mg/kg s.c., Day 11) was 99.0, the body weight ([3]; 3 mg/kg s.c., Day 1) was 100.0 and the body weight ([3]; 3 mg/kg s.c., Day 2) was 95.6. The body weight ([3]; 3 mg/kg s.c., Day 3) was 94.6, the body weight ([3]; 3 mg/kg s.c., Day 4) was 94.6 and the body weight ([3]; 3 mg/kg s.c., Day 5) was 94.6. For the same molecule, the body weight ([3]; 3 mg/kg s.c., Day 8) was 92.2, the body weight ([3]; 3 mg/kg s.c., Day 9) was 92.2 and the body weight ([3]; 3 mg/kg s.c., Day 10) was 92.7. The body weight ([3]; 3 mg/kg s.c., Day 11) was 92.6.

B5: Pegylated NT-4/5(E67C): NT-4/5 with glutamic acid 67 changed to cysteine, pegylated with mPEG-maleimide (10,000 Da) (conjugate)
chain: B1 chain with C50S, E67C
In the case of B5, the “receptor tyrosine phosphorylation of TrkB-expressing cell line” value (human TrkB) is reported as “active in activating TrkB receptor”.
